Several values for one entry are separate records, joined by “and”; a condition that tells them apart may be missing. Identical values can stand only once.
What was measured:
Details in all cases: 20 nM; 72 h
MCF10A [1] = experiment: percent viability (nuclei count relative to siNT); higher = more viable cells
Method: (§1)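 After 72 h, cells were fixed and stained with Hoechst and anti-fibrillarin, and nucleoli per nucleus were counted with CellProfiler. Values are plate-adjusted percent effect for the one-nucleolus and 5+ nucleoli phenotypes, normalised to siNT (0%) and to the positive controls siNOL11 or siKIF11 (100%), as the mean of biological triplicates. Percent viability is the nuclei count relative to siNT.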

MCF10A [2] = experiment: 5+ nucleoli phenotype percent effect (relative to siNT 0% and siKIF11 100%); higher = more cells with five or more nucleoli
Method: as §1

MCF10A [3] = experiment: one-nucleolus phenotype percent effect (relative to siNT 0% and siNOL11 100%); higher = more cells with one nucleolus (ribosome biogenesis inhibition)
Method: as §1

| Sequence | percent viability (MCF10A [1]) | 5+ nucleoli phenotype percent effect (MCF10A [2]) | one-nucleolus phenotype percent effect (MCF10A [3]) |
| --- | --- | --- | --- |
| AAAAACCACAAUUACUUUU [hsa-miR-548ap-3p] | 30.2% | -30.6% | 16.7% |
| AAAAACCACAAUUACUUUUGCACCA [hsa-miR-548aa] | 16.1% | -30.9% | 51.2% |
| AAAAACCACAAUUACUUUUGCACCA [hsa-miR-548t-3p] | 157% | 39.3% | -19.6% |
| AAAAACUGAGACUACUUUUGCA [hsa-miR-548e] | 140% | 40.3% | -28.9% |
| AAAAACUGCAAUCACUUUUGC [hsa-miR-548az-3p] | 62% | 7.93% | -6.63% |
| AAAAACUGUAAUUACUUUU [hsa-miR-548f] | – | 53.7% and 60% and 60.4% | -26.8% and -24.7% and -21.2% |
| AAAACCGUCUAGUUACAGUUGU [hsa-miR-1537] | 73.7% | 13.9% | -11.1% |
| AAAACGGUGAGAUUUUGUUUU [hsa-miR-553] | 103% | 65.7% | -24.2% |
| AAAACUAGGACUGUGUGGUGUA [hsa-miR-7844-5p] | 40.6% | -30.8% | 15.8% |
| AAAACUGCAGUUACUUUUGC [hsa-miR-548av-3p] | 83.1% | 35.1% | -20.6% |
| AAAACUGUAAUUACUUUUGUAC [hsa-miR-548g-3p] | 165% | 49.3% | -25.2% |
| AAAAGCACUUUUCUGUCUCCCAG [hsa-miR-6835-3p] | 41.3% | -36% | 12.3% |
| AAAAGCAUCAGGAAGUACCCA [hsa-miR-4422] | 58.8% | 2.92% | -9.65% |
| AAAAGCUGGGCUGAGAGGCG [hsa-miR-4429] | 38.6% | -19.2% | 24.9% |
| AAAAGCUGGGUUGAGAGGA [hsa-miR-320d] | 50.4% and 40.7% | -8.63% and -12.1% | 27% and 27.3% |
| AAAAGCUGGGUUGAGAGGGCAA [hsa-miR-320b] | 59% | -10.2% | 8.28% |
| AAAAGCUGGGUUGAGAGGGCGA [hsa-miR-320a] | 38.1% | -11.8% | 18.7% |
| AAAAGCUGGGUUGAGAGGGU [hsa-miR-320c] | 64.7% | -0.437% | 1.49% |
| AAAAGUAACUAUGGUUUUUGCC [hsa-miR-548bb-5p] | 138% | 30.8% | -28.8% |
| AAAAGUAACUGCGGUUUUUGA [hsa-miR-548ak] | 89.9% | 45.4% | -23.5% |

| Sequence | percent viability (MCF10A [1]) | 5+ nucleoli phenotype percent effect (MCF10A [2]) | one-nucleolus phenotype percent effect (MCF10A [3]) |
| --- | --- | --- | --- |
| AAAAGUAACUGCGGUUUUUGCCU [hsa-miR-548w] | 77.2% | 56.1% | -28.5% |
| AAAAGUAAUCACUGUUUUUGCC [hsa-miR-548y] | 73.4% | 42.1% | -21.4% |
| AAAAGUAAUCGCGGUUUUUGUC [hsa-miR-548h-5p] | 101% | 35.8% | -19.1% |
| AAAAGUAAUUGCAGUUUUUGC [hsa-miR-548ar-5p] | 134% | 22.8% | -24.8% |
| AAAAGUAAUUGCGAGUUUUACC [hsa-miR-548a-5p] | 172% | 9.73% | -20.8% |
| AAAAGUAAUUGCGGAUUUUGCC [hsa-miR-548i] | 140% | 20.3% | -17.1% |
| AAAAGUAAUUGCGGGUUUUGCC [hsa-miR-548as-5p] | 160% | 35.9% | -24.9% |
| AAAAGUAAUUGCGGUCUUU [hsa-miR-548ap-5p] | 121% | 39.1% | -19% |
| AAAAGUAAUUGCGGUCUUUGGU [hsa-miR-548j] | 85.9% | 17% | -14.6% |
| AAAAGUAAUUGCGGUUUUUGC [hsa-miR-548au-5p] | 100% | 42.7% | -19.4% |
| AAAAGUAAUUGCGGUUUUUGCC [hsa-miR-548am-5p] | 139% | 39.6% | -17.6% |
| AAAAGUAAUUGCGGUUUUUGCC [hsa-miR-548c-5p] | 166% | 16.9% | -19.1% |
| AAAAGUAAUUGCGGUUUUUGCC [hsa-miR-548o-5p] | 119% | 43.1% | -26.8% |
| AAAAGUAAUUGUGGAUUUUGCU [hsa-miR-548ab] | 67.8% | 30.5% | -19.3% |
| AAAAGUAAUUGUGGUUUUGGCC [hsa-miR-548b-5p] | 131% | 36.5% | -24.3% |
| AAAAGUAAUUGUGGUUUUUGC [hsa-miR-548ay-5p] | 134% | 28.7% | -28.5% |
| AAAAGUAAUUGUGGUUUUUGCC [hsa-miR-548d-5p] | 95.4% | 49.4% | -15.4% |
| AAAAGUACUUGCGGAUUU [hsa-miR-548av-5p] | 77.9% | 9.21% | -23.4% |
| AAAAGUACUUGCGGAUUUUGCU [hsa-miR-548k] | 75.4% | 36.4% | -15.1% |
| AAAAGUAUUUGCGGGUUUUGUC [hsa-miR-548l] | 127% | 30% | -20.8% |

| Sequence | percent viability (MCF10A [1]) | 5+ nucleoli phenotype percent effect (MCF10A [2]) | one-nucleolus phenotype percent effect (MCF10A [3]) |
| --- | --- | --- | --- |
| AAAAGUGAUUGCAGUGUUUG [hsa-miR-548ah-5p] | 114% | 17.4% | -15.3% |
| AAAAGUGCUUACAGUGCAGGUAG [hsa-miR-106a-5p] | 48.8% | 22.1% | -17.6% |
| AAAAGUUAUUGCGGUUUUGGCU [hsa-miR-548at-5p] | 54.1% | 15% | -14.7% |
| AAAAUGAAAUGAGCCCAGCCCA [hsa-miR-3646] | 63.5% | 21.9% | -19.1% |
| AAAAUGGUGCCCUAGUGACUACA [hsa-miR-224-3p] | 13.9% | -15% | 12.8% |
| AAAAUGGUUCCCUUUAGAGUGU [hsa-miR-522-3p] | 66.3% | 28.6% | -12.4% |
| AAAAUUUCUUUCACUACUUAG [hsa-miR-3606-3p] | 54% | 41.5% | -25.7% |
| AAACAAACAUGGUGCACUUCUU [hsa-miR-495-3p] | 93.6% | -10.6% | 5.47% |
| AAACACCAUUGUCACACUCCAC [hsa-miR-3591-3p] | 27.5% | -27% | 32.5% |
| AAACAUUCGCGGUGCACUUCUU [hsa-miR-543] | 37.4% | 0.749% | -1.05% |
| AAACCGUUACCAUUACUGAGUU [hsa-miR-451a] | 69.8% | 12.9% | -5.64% |
| AAACCUGUGUUGUUCAAGAGUC [hsa-miR-649] | 113% | 34.7% | -16.6% |
| AAACUAAUAUACCCAUAUUCUG [hsa-miR-5583-5p] | 115% | 35.5% | -23.4% |
| AAACUAAUCUCUACACUGCUGC [hsa-miR-3129-3p] | 98.8% | 5.92% | -4.83% |
| AAACUACUGAAAAUCAAAGAU [hsa-miR-606] | 133% | 18.1% | -12.6% |
| AAACUCUACUUGUCCUUCUGAGU [hsa-miR-618] | 46.5% | -16.4% | 10.9% |
| AAAGACAUAGGAUAGAGUCACCUC [hsa-miR-641] | 213% | 1.49% | -15.4% |
| AAAGACAUAGUUGCAAGAUGGG [hsa-miR-3617-5p] | 188% | 37.2% | -28.6% |
| AAAGACCCAUUGAGGAGAAGGU [hsa-miR-3667-5p] | 99.1% | -13.6% | 11.5% |
| GCGGCGAGUCCGACUCAU [hsa-miR-4285] | – | 32.6% and 20.7% | -17.6% and -20.2% |

— the supplement of paper PMC10899765
